Reference: patent US20180355060A1 (published 2018)

Key:
[1] = biological target: T1, human transglutaminase type 2 (TG2) (human, UniProt P21980 1-687); experiment: cell-based or functional assay
T1 sequence: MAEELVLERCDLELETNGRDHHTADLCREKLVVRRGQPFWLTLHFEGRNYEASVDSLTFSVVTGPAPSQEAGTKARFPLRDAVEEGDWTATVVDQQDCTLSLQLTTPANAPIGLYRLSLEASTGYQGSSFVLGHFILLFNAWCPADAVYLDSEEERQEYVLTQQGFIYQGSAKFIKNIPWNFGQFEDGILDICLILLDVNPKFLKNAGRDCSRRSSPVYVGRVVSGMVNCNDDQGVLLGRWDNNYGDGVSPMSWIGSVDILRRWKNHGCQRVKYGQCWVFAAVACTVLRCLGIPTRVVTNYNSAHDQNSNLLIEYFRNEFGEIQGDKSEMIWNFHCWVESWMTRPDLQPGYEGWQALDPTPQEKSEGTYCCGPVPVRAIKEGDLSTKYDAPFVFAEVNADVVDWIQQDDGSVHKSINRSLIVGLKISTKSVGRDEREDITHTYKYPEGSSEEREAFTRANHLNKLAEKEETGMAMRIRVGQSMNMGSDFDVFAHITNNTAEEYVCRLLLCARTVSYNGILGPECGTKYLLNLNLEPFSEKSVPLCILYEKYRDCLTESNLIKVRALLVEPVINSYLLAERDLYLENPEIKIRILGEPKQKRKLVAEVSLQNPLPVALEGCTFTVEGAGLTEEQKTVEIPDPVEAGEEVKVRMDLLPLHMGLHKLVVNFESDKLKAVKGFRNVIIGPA

rat TG2 = biological target: T2, rat TG2 (rat, UniProt Q9WVJ6 1-686); experiment: western blot and ELISA
T2 sequence: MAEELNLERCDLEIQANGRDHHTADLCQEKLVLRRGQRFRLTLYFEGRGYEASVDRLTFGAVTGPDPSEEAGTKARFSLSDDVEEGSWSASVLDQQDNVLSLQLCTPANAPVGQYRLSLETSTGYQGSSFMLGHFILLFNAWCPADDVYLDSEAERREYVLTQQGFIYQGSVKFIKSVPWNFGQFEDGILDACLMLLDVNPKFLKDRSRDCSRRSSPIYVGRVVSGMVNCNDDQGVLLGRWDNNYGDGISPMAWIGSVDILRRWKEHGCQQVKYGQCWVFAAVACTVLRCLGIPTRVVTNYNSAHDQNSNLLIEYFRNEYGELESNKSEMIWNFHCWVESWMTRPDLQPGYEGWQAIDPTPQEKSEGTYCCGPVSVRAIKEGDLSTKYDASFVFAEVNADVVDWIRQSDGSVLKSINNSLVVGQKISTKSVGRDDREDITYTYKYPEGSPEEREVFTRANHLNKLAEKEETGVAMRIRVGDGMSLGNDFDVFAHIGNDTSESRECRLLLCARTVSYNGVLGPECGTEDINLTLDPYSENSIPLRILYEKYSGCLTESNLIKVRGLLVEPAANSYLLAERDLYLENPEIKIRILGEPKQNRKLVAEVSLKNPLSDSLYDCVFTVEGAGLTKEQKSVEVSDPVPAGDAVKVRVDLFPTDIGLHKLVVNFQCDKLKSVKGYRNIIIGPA

mouse TG2 = biological target: T3, mouse TG2 (mouse, UniProt P21981 1-686); experiment: western blot and ELISA
T3 sequence: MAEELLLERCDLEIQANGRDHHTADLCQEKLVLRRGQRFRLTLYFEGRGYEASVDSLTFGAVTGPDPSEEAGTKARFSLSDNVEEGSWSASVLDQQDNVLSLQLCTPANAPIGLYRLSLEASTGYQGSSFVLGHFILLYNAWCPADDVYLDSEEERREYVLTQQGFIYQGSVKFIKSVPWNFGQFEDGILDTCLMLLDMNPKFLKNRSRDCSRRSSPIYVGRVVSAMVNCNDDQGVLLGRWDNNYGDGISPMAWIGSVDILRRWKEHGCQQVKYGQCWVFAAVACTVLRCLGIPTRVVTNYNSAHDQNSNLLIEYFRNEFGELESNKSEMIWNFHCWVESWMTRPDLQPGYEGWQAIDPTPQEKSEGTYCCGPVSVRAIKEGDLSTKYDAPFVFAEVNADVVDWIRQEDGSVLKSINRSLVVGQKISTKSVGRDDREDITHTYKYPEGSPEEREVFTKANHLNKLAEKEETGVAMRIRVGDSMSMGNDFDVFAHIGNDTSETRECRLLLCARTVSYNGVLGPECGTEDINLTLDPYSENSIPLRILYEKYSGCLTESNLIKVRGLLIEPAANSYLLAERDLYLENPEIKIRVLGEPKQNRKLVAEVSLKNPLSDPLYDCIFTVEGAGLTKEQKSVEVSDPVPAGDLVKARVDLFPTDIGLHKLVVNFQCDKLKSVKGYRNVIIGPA

IC50, 3H-putrescine incorporation TG activity assay [1]: 1.1e-05 mg/ml of IgG (amount required to inhibit 1 ng of TG2)
binding result (rat TG2): binds
binding result (mouse TG2): binds
B1: AB1 murine monoclonal anti-TG2 antibody (antibody, V domains shown)
VH: EVQLVESGGGLVKPGGSLKLSCAASGFTLSSSAMSWVRQTPDRRLEWVATISVGGGKTYYPDSVKGRFTISRDNAKNTLYLQMNSLRSEDTAMYYCAKLISLYWGQGTTLTVSS
VL: DIKMTQSPSSMYASLGERVTITCKASQDINSYLTWFQQKPGKSPKTLIYRTNRLFDGVPSRFSGSGSGQDFFLTISSLEYEDMGIYYCLQYDDFPYTFGGGTKLEIK
notes: they differ only in the first residues; also called AB1 IgG; mAB003
